From article PMC3141330 (Biochemistry, 2010)
One block for each binder: values may come before it. Ends that are not written are not given here.

B1: GST-CHIP fusion (pGST-hCHIP (1-303)) (enzyme, human, UniProt Q9UNE7 1-303, looked up)
chain: MKGKEEKEGGARLGAGGGSPEKSPSAQELKEQGNRLFVGRKYPEAAACYGRAITRNPLVAVYYTNRALCYLKMQQHEQALADCRRALELDGQSVKAHFFLGQCQLEMESYDEAIANLQRAYSLAKEQRLNFGDDIPSALRIAKKKRWNSIEERRIHQESELHSYLSRLIAAERERELEECQRNHEGDEDDSHVRAQQACIEAKHDKYMADMDELFSQVDEKRKKRDIPDYLCGKISFELMREPCITPSGITYDRKDIEEHLQRVGHFDPVTRSPLTQEQLIPNLAMKEVIDAFISENGWVEDY
B2: Carboxyl terminus of Hsc70-interacting protein (CHIP), full-length human, His6-tagged (enzyme, UniProt Q9UNE7 1-303, looked up)
chain: B1 chain
B3: His6-Hsp90β (full-length) (natural protein)
chain: not shown

Tests used:
[1] = biological target: B2; experiment: ITC
[2] = biological target: B3; experiment: pull-down
[3] = biological target: His6-Hsp70 (full-length, wild type) (UniProt P0DMV8 1-641); experiment: ITC
His6-Hsp70 (full-length, wild type), sequence (P0DMV8 whole entry): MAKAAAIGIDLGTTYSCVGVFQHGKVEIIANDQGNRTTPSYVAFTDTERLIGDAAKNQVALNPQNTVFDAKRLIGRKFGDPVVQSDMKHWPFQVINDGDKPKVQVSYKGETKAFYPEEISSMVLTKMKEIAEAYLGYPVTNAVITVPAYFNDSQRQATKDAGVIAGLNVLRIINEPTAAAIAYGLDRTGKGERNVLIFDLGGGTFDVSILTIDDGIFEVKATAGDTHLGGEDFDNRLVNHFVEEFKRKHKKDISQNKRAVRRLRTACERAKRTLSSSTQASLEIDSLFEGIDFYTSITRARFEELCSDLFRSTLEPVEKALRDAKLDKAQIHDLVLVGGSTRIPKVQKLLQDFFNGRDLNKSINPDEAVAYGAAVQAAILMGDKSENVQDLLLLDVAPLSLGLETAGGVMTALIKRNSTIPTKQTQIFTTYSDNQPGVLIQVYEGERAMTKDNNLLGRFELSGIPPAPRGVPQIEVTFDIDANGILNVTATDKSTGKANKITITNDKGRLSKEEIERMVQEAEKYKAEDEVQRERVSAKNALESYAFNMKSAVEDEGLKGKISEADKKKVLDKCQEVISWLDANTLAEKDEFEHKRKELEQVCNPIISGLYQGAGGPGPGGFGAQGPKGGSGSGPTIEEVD

[4] = biological target: B2; experiment: SEC

stoichiometry N [1]: ~0.8 C-terminal Hsp70 peptide per CHIP monomer
Binder: GGGAPPSGGASSGPTIEEVD-OH [Hsp70 C-terminal peptide (GGGAPPSGGASSGPTIEEVD-COO-), ITC]

Binder: B1
binding result [2]: binds

Binder: B2
Kd [3]: ~1000 nM

Binder: B3
stoichiometry N [4]: ~2.1 Hsp90 monomers per CHIP monomer

stoichiometry N [1]: ~0.9 Hsp90 C-terminal peptide per CHIP monomer
Binder: GSSAAWTEEMPPLEGDDDTSRMEEVD-OH [Hsp90 C-terminal peptide ([residues removed]-COO-), ITC]
